T1: hFZD8 CRD-Fc (human, UniProt Q9H461 28-158, limits assumed)
T1 construct: domain: CRD; bought (R&D Systems); not shown: Fc part
T1 sequence (looked up): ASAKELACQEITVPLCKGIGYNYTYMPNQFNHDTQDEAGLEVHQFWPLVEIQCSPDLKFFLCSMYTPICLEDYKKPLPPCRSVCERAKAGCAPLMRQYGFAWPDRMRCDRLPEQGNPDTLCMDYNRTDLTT


What follows are binders tested against T1, hFZD8 CRD-Fc (assay: spot phage ELISA).

Compared with LPSDDLEFWCHVMY (also called Fz7-21) [SEQ ID NO 13], YEHLHDLMDLIRPW (also called Fz7-07) [SEQ ID NO 1] is higher in “signal:noise ratio” value: 1.1 for the first, 1.6 for the second.

In the case of ACSYVIDLWNQCLT [SEQ ID NO 4], the “signal:noise ratio” value is reported as 3.1.

Each binder was assayed against T2, hFZD7 CRD-Fc (human, UniProt O75084 33-185) (assay: spot phage ELISA).

Compared with FWMQLQDGFAIWFP [SEQ ID NO 15], LPSDDLEFWCHVMY (also called Fz7-21) [SEQ ID NO 13] is lower in “signal:noise ratio” value: 27.8 for the first, 24.5 for the second.

Compared with YEHLHDLMDLIRPW (also called Fz7-07) [SEQ ID NO 1], ACSYVIDLWNQCLT [SEQ ID NO 4] is higher in “signal:noise ratio” value: 23.2 for the first, 26.8 for the second.

Target: T2, hFZD7 CRD-Fc
Test: spot phage ELISA
Remark: another data set of the same source

Compared with VPADALAVWCDVMY [SEQ ID NO 66], AAADDLAAWCHVVY [SEQ ID NO 98] is lower in S/N: 53 for the first, 50.8 for the second.

First: APSDDLEFWCHVMY [SEQ ID NO 44]
Second: APADDLEFWCHVMY [SEQ ID NO 72]
The S/N of the first is higher: 58.3 for the first, 51.6 for the second.

Compared with VASDDLEAWCHVMY [SEQ ID NO 47], LPSDDLESWCHVMY [SEQ ID NO 53] is lower in S/N: 57 for the first, 54.5 for the second.

First: APSDDLEFWCHAMY [SEQ ID NO 46]
Second: VASDDLEFWCHVMY [SEQ ID NO 58]
The S/N of the first is higher: 57.2 for the first, 54 for the second.

Compared with PPADDLAFWCDVMY [SEQ ID NO 85], VPSADLETWCHVMY [SEQ ID NO 83] is higher in S/N: 44.9 for the first, 47.3 for the second.

First: APSDDLAAWCHVVY [SEQ ID NO 56]
Second: AAADDLAFWCHVMY [SEQ ID NO 80]
The S/N of the first is higher: 54 for the first, 48.2 for the second.

Compared with APADDVEFWCHVMY [SEQ ID NO 43], LPADDLAVWCDVMY [SEQ ID NO 52] is lower in S/N: 58.6 for the first, 54.9 for the second.

First: APADDLEFWCHVVY [SEQ ID NO 64]
Second: VPSADLESWCHVMY [SEQ ID NO 69]
The S/N of the first is higher: 53.2 for the first, 52.2 for the second.

Compared with APSDDLAAWCHVMY [SEQ ID NO 73], APADDLEFWCHAMY [SEQ ID NO 89] is lower in S/N: 51.3 for the first, 36.3 for the second.

Going from LASDDLEFWCHVMY [SEQ ID NO 81] to AASDDLAAWCHVMY [SEQ ID NO 49], the S/N rises from 48.1 to 55.7.

First: APSDDLAFWCHVVY [SEQ ID NO 97]
Second: AAADDLAAWCDVMY [SEQ ID NO 57]
The S/N of the first is lower: 45 for the first, 54 for the second.

First: AAADDLEVWCHVMY [SEQ ID NO 54]
Second: APADDLAFWCDVMY [SEQ ID NO 90]
The S/N of the first is higher: 54.4 for the first, 33.8 for the second.

First: VAADDLAFWCDVMY [SEQ ID NO 88]
Second: APSDDLAFWCDVMY [SEQ ID NO 91]
The S/N of the first is higher: 40.7 for the first, 27.4 for the second.

First: VPSDDLAFWCHVMY [SEQ ID NO 65]
Second: AASDDLAFWCHVMY [SEQ ID NO 77]
The S/N of the first is higher: 53.2 for the first, 49.7 for the second.

First: AAADDLEFWCHVMY [SEQ ID NO 48]
Second: APADDLESWCHVMY [SEQ ID NO 96]
The S/N of the first is higher: 56.1 for the first, 53.9 for the second.

Compared with VPADDLASWCHVMY [SEQ ID NO 63], AAADDLAFWCDVMY [SEQ ID NO 93] is lower in S/N: 53.4 for the first, 8.5 for the second.

Going from AASDDLEAWCHVMY [SEQ ID NO 70] to APSDDLASWCHVMY [SEQ ID NO 71], the S/N falls from 52.1 to 52.

First: APADDLAFWCHVMY [SEQ ID NO 51]
Second: VPADDLAFWCHVMY [SEQ ID NO 67]
The S/N of the first is higher: 55.1 for the first, 52.7 for the second.

Compared with APADDLAFWCHVVY [SEQ ID NO 74], APADDLASWCHVMY [SEQ ID NO 61] is higher in S/N: 50.6 for the first, 53.5 for the second.

Compared with LPSADLESWCHVMY [SEQ ID NO 79], VPSDDLASWCHVMY [SEQ ID NO 68] is higher in S/N: 48.6 for the first, 52.2 for the second.

First: VPADDLASWCDVMY [SEQ ID NO 78]
Second: LPADDLAFWCDVMY [SEQ ID NO 92]
The S/N of the first is higher: 49.2 for the first, 23.8 for the second.

Going from AASDDLESWCHVMY [SEQ ID NO 50] to APADDLEAWCHVMY [SEQ ID NO 45], the S/N rises from 55.6 to 58.1.

Compared with APSDDLEAWCDVMY [SEQ ID NO 75], VPSDDLEAWCDVMY [SEQ ID NO 76] is lower in S/N: 50.2 for the first, 49.8 for the second.

Compared with AAADDLEAWCAVMY [SEQ ID NO 59], VASDDLASWCHAMY [SEQ ID NO 62] is lower in S/N: 53.6 for the first, 53.5 for the second.

First: VAADDLAAWCHVMY [SEQ ID NO 39]
Second: VAADALEFWCHVMY [SEQ ID NO 55]
The S/N of the first is higher: 60.7 for the first, 54.2 for the second.

Going from AAADDVASWCHVMY [SEQ ID NO 87] to LPAADLAAWCHVMY [SEQ ID NO 82], the S/N rises from 44.5 to 48.

First: LPADDLAAWCHVMY [SEQ ID NO 84]
Second: LAADDLESWCHVMY [SEQ ID NO 60]
The S/N of the first is lower: 46.7 for the first, 53.5 for the second.

Compared with APSDDVAFWCHVMY [SEQ ID NO 42], VASDDLASWCHVVY [SEQ ID NO 86] is lower in S/N: 58.6 for the first, 44.8 for the second.

VPSDDLEFWCAVMY [SEQ ID NO 95] showed a S/N of 2.1.

Compared with VPADALAVWCDVMY [SEQ ID NO 66], AAADDLAAWCHVVY [SEQ ID NO 98] is lower in S/W: 2.9 for the first, 2.7 for the second.

Compared with APSDDLEFWCHVMY [SEQ ID NO 44], APADDLEFWCHVMY [SEQ ID NO 72] is lower in S/W: 3.1 for the first, 3 for the second.

Going from VASDDLEAWCHVMY [SEQ ID NO 47] to LPSDDLESWCHVMY [SEQ ID NO 53], the S/W falls from 3.1 to 3.

First: APSDDLEFWCHAMY [SEQ ID NO 46]
Second: VASDDLEFWCHVMY [SEQ ID NO 58]
The S/W of the first is lower: 3.1 for the first, 3.2 for the second.

First: PPADDLAFWCDVMY [SEQ ID NO 85]
Second: VPSADLETWCHVMY [SEQ ID NO 83]
The S/W of the first is higher: 2.9 for the first, 2.8 for the second.

Going from APSDDLAAWCHVVY [SEQ ID NO 56] to AAADDLAFWCHVMY [SEQ ID NO 80], the S/W rises from 2.9 to 3.1.

APADDVEFWCHVMY [SEQ ID NO 43] and LPADDLAVWCDVMY [SEQ ID NO 52] are the same in S/W: 3.1 for the first, 3.1 for the second.

Compared with APADDLEFWCHVVY [SEQ ID NO 64], VPSADLESWCHVMY [SEQ ID NO 69] is lower in S/W: 3.1 for the first, 2.9 for the second.

Going from APSDDLAAWCHVMY [SEQ ID NO 73] to APADDLEFWCHAMY [SEQ ID NO 89], the S/W falls from 3 to 1.9.

LASDDLEFWCHVMY [SEQ ID NO 81] and AASDDLAAWCHVMY [SEQ ID NO 49] are the same in S/W: 3 for the first, 3 for the second.

Compared with APSDDLAFWCHVVY [SEQ ID NO 97], AAADDLAAWCDVMY [SEQ ID NO 57] is higher in S/W: 2.5 for the first, 3.1 for the second.

Compared with AAADDLEVWCHVMY [SEQ ID NO 54], APADDLAFWCDVMY [SEQ ID NO 90] is lower in S/W: 3.1 for the first, 3 for the second.

First: VAADDLAFWCDVMY [SEQ ID NO 88]
Second: APSDDLAFWCDVMY [SEQ ID NO 91]
The S/W of the first is lower: 3 for the first, 3.1 for the second.

Going from VPSDDLAFWCHVMY [SEQ ID NO 65] to AASDDLAFWCHVMY [SEQ ID NO 77], the S/W rises from 3 to 3.1.

Compared with AAADDLEFWCHVMY [SEQ ID NO 48], APADDLESWCHVMY [SEQ ID NO 96] is lower in S/W: 3.1 for the first, 2.9 for the second.

Going from VPADDLASWCHVMY [SEQ ID NO 63] to AAADDLAFWCDVMY [SEQ ID NO 93], the S/W falls from 3.1 to 2.7.

Going from AASDDLEAWCHVMY [SEQ ID NO 70] to APSDDLASWCHVMY [SEQ ID NO 71], the S/W rises from 3.1 to 3.3.

First: APADDLAFWCHVMY [SEQ ID NO 51]
Second: VPADDLAFWCHVMY [SEQ ID NO 67]
The S/W of the first is lower: 3 for the first, 3.1 for the second.

APADDLAFWCHVVY [SEQ ID NO 74] and APADDLASWCHVMY [SEQ ID NO 61] are the same in S/W: 3.2 for the first, 3.2 for the second.

First: LPSADLESWCHVMY [SEQ ID NO 79]
Second: VPSDDLASWCHVMY [SEQ ID NO 68]
The S/W of the first is lower: 2.9 for the first, 3.1 for the second.

First: VPADDLASWCDVMY [SEQ ID NO 78]
Second: LPADDLAFWCDVMY [SEQ ID NO 92]
The S/W of the first is higher: 2.9 for the first, 2.8 for the second.

Going from AASDDLESWCHVMY [SEQ ID NO 50] to APADDLEAWCHVMY [SEQ ID NO 45], the S/W rises from 2.9 to 3.1.

APSDDLEAWCDVMY [SEQ ID NO 75] and VPSDDLEAWCDVMY [SEQ ID NO 76] are the same in S/W: 2.7 for the first, 2.7 for the second.

Compared with AAADDLEAWCAVMY [SEQ ID NO 59], VASDDLASWCHAMY [SEQ ID NO 62] is lower in S/W: 3.1 for the first, 3 for the second.

Compared with VAADDLAAWCHVMY [SEQ ID NO 39], VAADALEFWCHVMY [SEQ ID NO 55] is lower in S/W: 3.4 for the first, 3 for the second.

Compared with AAADDVASWCHVMY [SEQ ID NO 87], LPAADLAAWCHVMY [SEQ ID NO 82] is higher in S/W: 2.3 for the first, 3 for the second.

Going from LPADDLAAWCHVMY [SEQ ID NO 84] to LAADDLESWCHVMY [SEQ ID NO 60], the S/W falls from 3.1 to 3.

Compared with APSDDVAFWCHVMY [SEQ ID NO 42], VASDDLASWCHVVY [SEQ ID NO 86] is lower in S/W: 3.1 for the first, 2.5 for the second.

VPSDDLEFWCAVMY [SEQ ID NO 95] was tested, and the S/W was 0.1.
